Where no end group is shown, it is not given here. [ ]: non-standard residue; d: D form. Ac6c = NC1(C(=O)O)CCCCC1; Nle = CCCC[C@H](N)C(=O)O; Aib = CC(C)(N)C(=O)O
Molecular target: T1, human recombinant GIP receptor (human, UniProt P48546 22-466)
T1 construct: whole, on cells; Membranes of CHO-K1 cells expressing the receptor; also called hGIP receptor
T1 sequence (looked up): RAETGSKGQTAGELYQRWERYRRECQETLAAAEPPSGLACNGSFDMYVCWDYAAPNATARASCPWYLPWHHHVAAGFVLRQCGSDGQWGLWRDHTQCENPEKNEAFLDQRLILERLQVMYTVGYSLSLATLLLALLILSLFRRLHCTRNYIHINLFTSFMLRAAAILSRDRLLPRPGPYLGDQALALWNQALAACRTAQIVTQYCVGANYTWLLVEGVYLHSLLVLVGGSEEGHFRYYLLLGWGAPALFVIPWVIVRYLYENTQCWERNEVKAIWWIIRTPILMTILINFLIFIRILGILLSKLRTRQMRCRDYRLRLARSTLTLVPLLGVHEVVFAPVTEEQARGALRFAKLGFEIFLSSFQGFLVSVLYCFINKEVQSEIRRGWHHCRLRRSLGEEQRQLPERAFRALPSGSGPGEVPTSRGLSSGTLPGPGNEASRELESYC
Test: [125I]GIP competition, membranes of CHO-K1 cells expressing human GIP receptor

How did the Ki turn out when “(Pro^3, A5c^11, Nle^14)hGIP(1-30)-OH (peptide)” was run?
Its Ki is 86.8 nM.

With Y[Aib]EGTF[Ac6c]SDYSIA[Nle]DKIHQQDFVNWLLAQKGKKNDWKHNI[Aib]Q-OH [(Aib^2, 41, A6c^7, Nle^14)hGIP(1-42)-OH] as the molecule, how does the Ki read?
The Ki was 1.33 nM.

With Y[Aib]E[Aib]TFISDYSIAMDKIHQQDFVNWLLAQKGKKNDWKHNITQ-OH [(Aib^2, 4)hGIP(1-42)-OH] as the molecule, how does the Ki read?
Its Ki is 80.1 nM.

Which Ki does the source give for Y[Aib]EGTF[Ac6c]SDYSIA[Nle]DKIHQQDFVNWLLAQKGKKNDWKHN[Ac6c]TQ-OH [(Aib^2, A6c^7, 40, Nle^14)hGIP(1-42)-OH] here?
Its Ki is 1.09 nM.

For YXEGTFISXYSIAMDKIHQQDFVNWLLAQK (Aib at 2 and 9; C-terminal amide) [(Aib^2, 9)hGIP(1-30)-NH2], which Ki is on record?
The Ki was 5.38 nM.

For YXEGTFXSDYSIAXDKIHQQDFVNWLLAQK (A5c at 2 and 7; Nle at 14; C-terminal amide) [(A5c^2, 7, Nle^14)hGIP(1-30)-NH2], which Ki is on record?
Its Ki is 25.8 nM.

How did the Ki turn out when YXEGTFISDYSXAMDKIHQQDFVNWLLAQK (Aib at 2 and 12; C-terminal amide) [(Aib^2, 12)hGIP(1-30)-NH2] was run?
Its Ki is 1.84 nM.

YXEGTFXSDYSIAXDKIHQQDFVNWLLAQK (A6c at 2 and 7; Nle at 14; C-terminal amide) [(A6c^2, 7, Nle^14)hGIP(1-30)-NH2] was tested. Which Ki did it give?
The Ki was 47 nM.

For Y[Aib]EGTF[Ac6c]SDYSIA[Nle]DKIHQQDFVNWLL[Aib]QKGKKNDWKHNITQ-OH [(Aib^2, 28, A6c^7, Nle^14)hGIP(1-42)-OH], which Ki is on record?
The Ki was 1.22 nM.

YXEGTFXSDYSIAMDKIHQQDFVNWLLAQK (Aib at 2 and 7; C-terminal amide) [(Aib^2, 7)hGIP(1-30)-NH2] was tested. Which Ki did it give?
Its Ki is 0.53 nM.

For YXEGTFXSDYSIAXDKIHQQDFVNWLLAQK (Aib at 2; A5c at 7 and 14; C-terminal amide) [(Aib^2, A5c^7, 14)hGIP(1-30)-NH2], which Ki is on record?
The Ki was 2.32 nM.

With Y[Aib]EGTF[Ac6c]SDYSIA[Nle]DKIHQQDFVNWLLAQKGKKNDWKHNI[Ac6c]Q-OH [(Aib^2, A6c^7, 41, Nle^14)hGIP(1-42)-OH] as the molecule, how does the Ki read?
The Ki was 1.17 nM.

With YXEGTFXSDYSIAXDKIHQQDFVNWLLAQK (Aib at 2; A6c at 7; Nle at 14; C-terminal amide) [(Aib^2, A6c^7, Nle^14)hGIP(1-30)-NH2] as the molecule, how does the Ki read?
Its Ki is 1.04 nM.

YXEGTFIXDYSIAMDKIHQQDFVNWLLAQKGKKNDWKHNITQ (Aib at 2 and 8; C-terminal free acid) [(Aib^2, 8)hGIP(1-42)-OH] was tested. Which Ki did it give?
Its Ki is 16.2 nM.

For YXEGTFISXYSIAMDKIHQQDFVNWLLAQKGKKNDWKHNITQ (Aib at 2 and 9; C-terminal free acid) [(Aib^2, 9)hGIP(1-42)-OH], which Ki is on record?
The Ki was 2.66 nM.

With YXEGTFISDYXIAMDKIHQQDFVNWLLAQKGKKNDWKHNITQ (Aib at 2 and 11; C-terminal free acid) [(Aib^2, 11)hGIP(1-42)-OH] as the molecule, how does the Ki read?
The Ki was 1.2 nM.

With YXEGTFXSDYSIAXDKIHQQDFVNWLXAQKGKKNDWKHNITQ (Aib at 2; A6c at 7 and 27; Nle at 14; C-terminal free acid) [(Aib^2, A6c^7, 27, Nle^14)hGIP(1-42)-OH] as the molecule, how does the Ki read?
The Ki was 121 nM.

Which Ki does the source give for YXEGTFXSDYSIAXDKIHQQDFVNWLLAQKXKKNDWKHNITQ (Aib at 2 and 31; A6c at 7; Nle at 14; C-terminal free acid) [(Aib^2, 31, A6c^7, Nle^14)hGIP(1-42)-OH] here?
Its Ki is 2.06 nM.

How did the Ki turn out when YXEGTFXSDYSIXXDKIHQQDFVNWLLAQKGKKNDWKHNITQ (Aib at 2 and 13; A6c at 7; Nle at 14; C-terminal free acid) [(Aib^2, 13, A6c^7, Nle^14)hGIP(1-42)-OH] was run?
Its Ki is 0.3 nM.

With YXEGTFXSDYSIAXDKIHQQDFVNWXLAQKGKKNDWKHNITQ (Aib at 2; A6c at 7 and 26; Nle at 14; C-terminal free acid) [(Aib^2, A6c^7, 26, Nle^14)hGIP(1-42)-OH] as the molecule, how does the Ki read?
Its Ki is 2.54 nM.

With YXEGTFXSDYSIAMDKIHQQDFVNWLLAQKXKKNDWKHNITQ (Aib at 2 and 31; A6c at 7; C-terminal free acid) [(Aib^2, 31, A6c^7)hGIP(1-42)-OH] as the molecule, how does the Ki read?
Its Ki is 6.96 nM.

YXEGTFXSDYSIAXDKXHQQDFVNWLLAQKGKKNDWKHNITQ (Aib at 2; A6c at 7 and 17; Nle at 14; C-terminal free acid) [(Aib^2, A6c^7, 17, Nle^14)hGIP(1-42)-OH] was tested. Which Ki did it give?
The Ki was 1.06 nM.

For YGEGTFISDYXIAXDKIHQQDFVNWLLAQKGKKNDWKHNITQH (A5c at 11; Nle at 14; C-terminal free acid) [(Gly^2, A5c^11, Nle^14, His^43)hGIP(1-43)-OH], which Ki is on record?
Its Ki is 0.87 nM.

With YXEGTFISDYXIAXDKIHQQDFVNWLLAQKGKKNDWKHNITQH (Aib at 2; A5c at 11 and 14; C-terminal free acid) [(Aib^2, A5c^11,14, His^43)hGIP(1-43)-OH] as the molecule, how does the Ki read?
The Ki was 0.55 nM.

Which Ki does the source give for YAEGTFISDYXIAXDKIHQQDFVNWLLAQKGKKNDWKHNITQH (D-Ala at 2; A5c at 11; Nle at 14; C-terminal free acid, X stands for the non-natural residue) [(D-Ala^2, A5c^11, Nle^14, His^43)hGIP(1-43)-OH] here?
Its Ki is 0.66 nM.

YAPGTFISDYXIAXDKIHQQDFVNWLLAQK (A5c at 11; A6c at 14; C-terminal amide) [(Pro^3, A5c^11, A6c^14)hGIP(1-30)-NH2] was tested. Which Ki did it give?
The Ki was 871 nM.

YAEGTFISDYXIAXDKIHQQDFVNWLLAQK (D-Ala at 2; A5c at 11 and 14; C-terminal amide, X stands for the non-natural residue) [(D-Ala^2, A5c^11, 14)hGIP(1-30)-NH2] was tested. Which Ki did it give?
Its Ki is 0.46 nM.

How did the Ki turn out when YXEGTFISDYXIAMDKIHQQDFVNWLLAQK (Aib at 2 and 11; C-terminal amide) [(Aib^2, 11)hGIP(1-30)-NH2] was run?
Its Ki is 0.37 nM.

With YXPGTFISDYXIAMDKIHQQDFVNWLLAQK (Aib at 2; A5c at 11; C-terminal amide) [(Aib^2, Pro^3, A5c^11)hGIP(1-30)-NH2] as the molecule, how does the Ki read?
Its Ki is 216 nM.

YXEGXFISDYSIAMDKIHQQDFVNWLLAQK (Aib at 2; A5c at 5; C-terminal amide) [(Aib^2, A5c^5)hGIP(1-30)-NH2] was tested. Which Ki did it give?
Its Ki is 2.05 nM.

For YXEGXFISDYSIAMDKIHQQDFVNWLLAQK (Aib at 2 and 5; C-terminal amide) [(Aib^2, 5)hGIP(1-30)-NH2], which Ki is on record?
The Ki was 3.33 nM.

How did the Ki turn out when Y[Aib]EGTF[Aib]SDYSIAMDKIHQQDFVNWLLAQKGKKNDWKHNITQ-OH [(Aib^2, 7)hGIP(1-42)-OH] was run?
Its Ki is 0.75 nM.

With Y[Aib]EGTF[Ac6c]SDYSIAMDKIHQQDFVNWLLAQKGKKNDWKHNI[Aib]Q-OH [(Aib^2, 41, A6c^7)hGIP(1-42)-OH] as the molecule, how does the Ki read?
Its Ki is 0.87 nM.

How did the Ki turn out when YXEGTFIXDYSIAMDKIHQQDFVNWLLAQK (Aib at 2 and 8; C-terminal amide) [(Aib^2, 8)hGIP(1-30)-NH2] was run?
The Ki was 15.9 nM.

With YXEXTFISDYSIAMDKIHQQDFVNWLLAQK (Aib at 2 and 4; C-terminal amide) [(Aib^2, 4)hGIP(1-30)-NH2] as the molecule, how does the Ki read?
The Ki was 107 nM.

YXEGTFISDYSXAMDKIHQQDFVNWLLAQK (Aib at 2; A5c at 12; C-terminal amide) [(Aib^2, A5c^12)hGIP(1-30)-NH2] was tested. Which Ki did it give?
Its Ki is 0.98 nM.

With YXEGTFXSDYSIAXDKIHQQDFVNWLLAQK (Aib at 2; A5c at 7; Nle at 14; C-terminal amide) [(Aib^2, A5c^7, Nle^14)hGIP(1-30)-NH2] as the molecule, how does the Ki read?
Its Ki is 4.9 nM.

With YXEGTFISDYXIAXDKIHQQDFVNWLLAQK (Aib at 2 and 11; Nle at 14; C-terminal amide) [(Aib^2, 11, Nle^14)hGIP(1-30)-NH2] as the molecule, how does the Ki read?
The Ki was 1.39 nM.

With YXPGTFISDYXIAXDKIHQQDFVNWLLAQK (Aib at 2; A5c at 11; A6c at 14; C-terminal amide) [(Aib^2, Pro^3, A5c^11, A6c^14)hGIP(1-30)-NH2] as the molecule, how does the Ki read?
Its Ki is 34.1 nM.

For YAEGTFISDYXIAMDKIHQQDFVNWLLAQKH (D-Ala at 2; A5c at 11; C-terminal amide, X stands for the non-natural residue) [(D-Ala^2, A5c^11, His^31)hGIP(1-31)-NH2], which Ki is on record?
The Ki was 0.87 nM.

YXEGTFXSDYSIAMDKIHQQDFVNWLLAQK (Aib at 2; A5c at 7; C-terminal amide) [(Aib^2, A5c^7)hGIP(1-30)-NH2] was tested. Which Ki did it give?
Its Ki is 0.27 nM.

YXPGTFXSDYSIAMDKIHQQDFVNWLLAQK (Aib at 2; A6c at 7; C-terminal amide) [(Aib^2, Pro^3, A6c^7)hGIP(1-30)-NH2] was tested. Which Ki did it give?
The Ki was 333 nM.

YXEGTFISDYXIAXDKIHQQDFVNWLLAQK (Aib at 2 and 11; A6c at 14; C-terminal amide) [(Aib^2, 11, A6c^14)hGIP(1-30)-NH2] was tested. Which Ki did it give?
The Ki was 0.73 nM.

Reference: patent US20110136733A1 (IPSEN PHARMA S A S, published 2011)
